The source of these data is patent publication US20240207313A1.

Experiment [1] concerns the target T-cell surface glycoprotein CD4 [Homo sapiens] (Homo sapiens) (UniProt P01730). The experiment can be described thus: cell-based or functional assay.
For experiment [2], the target named is T-cell receptor with TCR Vbeta 7.1 chain (H. sapiens rearranged TCR Vbeta 7.1) (H. sapiens). The experiment can be described thus: cell-based or functional assay.
Chain of T-cell receptor with TCR Vbeta 7.1 chain (H. sapiens rearranged TCR Vbeta 7.1) (H. sapiens) (A0A577 whole entry, form in doubt): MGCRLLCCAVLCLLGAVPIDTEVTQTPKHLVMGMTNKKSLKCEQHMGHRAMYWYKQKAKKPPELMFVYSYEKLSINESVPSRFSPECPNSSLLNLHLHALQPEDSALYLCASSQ

As for “CART20 anti-CD20 chimeric antigen receptor (scFv of monoclonal antibody Leu16 in the third-generation CAR backbone), expressed on transduced human T cells”, the CD4-positive cells remaining in the culture after CAR transduction (flow cytometry) in experiment [1] turned out to be 45%. In addition, the TCR Vβ7.1-positive cells remaining five days after CAR transduction (flow cytometry) in experiment [2] was determined as 1.2%.
